Here are results for 2 substances from publication PMC8528048, “Chemoselective cysteine or disulfide modification via single atom substitution in chloromethyl acryl reagents” (Chemical Science, 2021).

This data set deals with Micrococcus lysodeikticus lyophilized cell suspensions. Put plainly: Lysozyme enzymatic assay: absorbance change at 450 nm of cell suspensions. The format is biochemical. To be noted: 0.01 mg/mL enzyme, 10 μL into 250 μL cell suspension 0.32 mg/mL, 66 mM phosphate buffer pH 6.2; A450 every minute for 15 minutes; ratio of slopes minus blank. The method, then:
Lysozyme is an antimicrobial enzyme that is capable of hydrolyzing the 1,4-beta-linkages in the peptidoglycan of Gram-positive bacterial cell walls, thus leading to the lysis of bacteria (Fig. 8a). Therefore, the catalytic activity of modified lysozyme was assessed by investigation of the absorbance change at 450 nm of Micrococcus lysodeikticus lyophilized cell suspensions over time, where the activity of the modified lysozyme is proportional to their capability to hydrolyze the bacterial cell walls.[45] In comparison to native lysozyme, the disulfide-modified lysozyme Ly-PEG-Tz retained 86% of its activity (Fig. 8b, calculation details shown in Section 8.3 in ESI ^†).
Fig. 8 (a) The hydrolysis of 1,4-beta-linkages between N-acetyl-D-glucosamine (NAG) and N-acetylmuramic acid (NAM) residues in peptidoglycans of Gram-positive bacterial cell walls. The absorbance of the cell suspension at 450 nm was monitored to evaluate their catalytic activity and the rate of absorbance decrease was proportional to its activity. […]
The lysozyme enzymatic assay was performed according to the protocol form Sigma Aldrich’s technical bulletin. […] 250 μL of the cell suspensions was added to the 96-well plate and the absorbance was measured at 450 nm. According to the obtained absorbance, the concentration was carefully adjusted to ensure the absorbance at 450 nm between 0.6 and 0.7. […]

Regarding “Ly-PEG5-Tz: lysozyme statistically modified at lysines with Tz-PEG5-NHS; mixture of no, single and dual modification”, the “catalytic activity retained in comparison to native lysozyme” value was “Total loss of the activity”.
To “Ly-PEG-Tz: lysozyme (hen egg white) modified at the C6–C127 disulfide with PEG-tetrazine via compound 8” belongs 86%.
